Tests used:
[1] = target: T1, hA1 receptor (human, UniProt P30542 1-326); assay: In vitro specificity, flow cytometry MFI at 100 nM IgG on hA1
T1 construct: whole, on cells
T1 sequence (looked up): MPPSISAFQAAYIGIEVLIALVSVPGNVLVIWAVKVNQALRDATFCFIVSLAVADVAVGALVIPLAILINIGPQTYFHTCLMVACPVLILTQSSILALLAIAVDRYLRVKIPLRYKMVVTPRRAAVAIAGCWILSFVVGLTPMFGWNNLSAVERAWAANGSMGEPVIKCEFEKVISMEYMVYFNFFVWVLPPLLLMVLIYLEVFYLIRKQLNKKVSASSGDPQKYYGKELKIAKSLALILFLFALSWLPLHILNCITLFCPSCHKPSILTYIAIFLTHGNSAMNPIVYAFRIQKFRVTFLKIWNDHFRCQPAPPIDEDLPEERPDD

[2] = target: T2, hA2b receptor (human, UniProt P29275 1-332); assay: In vitro specificity, flow cytometry MFI at 100 nM IgG on hA2b
T2 construct: whole, on cells; also called adenosine A2B receptor
T2 sequence (looked up): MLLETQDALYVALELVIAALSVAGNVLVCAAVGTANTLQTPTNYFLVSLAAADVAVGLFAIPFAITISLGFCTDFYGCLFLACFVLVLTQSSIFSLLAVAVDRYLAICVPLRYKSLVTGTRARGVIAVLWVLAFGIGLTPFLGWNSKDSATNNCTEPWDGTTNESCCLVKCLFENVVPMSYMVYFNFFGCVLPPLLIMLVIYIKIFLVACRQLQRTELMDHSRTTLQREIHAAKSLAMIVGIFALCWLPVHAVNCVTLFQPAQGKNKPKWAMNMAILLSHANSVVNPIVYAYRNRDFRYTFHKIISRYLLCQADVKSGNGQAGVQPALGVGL

[3] = target: T3, hA3 receptor (human, UniProt P0DMS8 1-318); assay: In vitro specificity, flow cytometry MFI at 100 nM IgG on hA3
T3 construct: whole, on cells
T3 sequence (looked up): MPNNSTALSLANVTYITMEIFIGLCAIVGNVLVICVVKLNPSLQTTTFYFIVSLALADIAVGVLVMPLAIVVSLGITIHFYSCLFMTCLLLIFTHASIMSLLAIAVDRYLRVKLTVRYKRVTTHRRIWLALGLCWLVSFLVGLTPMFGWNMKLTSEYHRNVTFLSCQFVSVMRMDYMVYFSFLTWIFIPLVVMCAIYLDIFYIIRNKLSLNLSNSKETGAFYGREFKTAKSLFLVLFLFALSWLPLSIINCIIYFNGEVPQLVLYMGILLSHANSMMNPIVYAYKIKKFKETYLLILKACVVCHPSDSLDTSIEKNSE

Measured: binding result

B1: A2A-81 (antibody, V domains shown)
VH: QVQLQESGPGLVKPSGTLSLTCAVSGGSISSSNWWSWVRQPPGKGLEWIGEIYHSGSTNYNPSLKSRVTISVDKSKNQFSLKLGSVTAADTAVYYCAREVVSGLYGTIFDYWGQGTLVTVSS
VL: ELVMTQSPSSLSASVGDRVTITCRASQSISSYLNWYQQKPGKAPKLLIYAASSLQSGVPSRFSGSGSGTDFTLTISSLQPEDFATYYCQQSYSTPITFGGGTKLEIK
notes: Tested as IgG
no binding (tested: 100 nM): [1] | [2] | [3]
